# Assay results from PMC4837482, “The complex binding mode of the peptide hormone H2 relaxin to its receptor RXFP1” (Nature Communications, 2016).
# Where a chain is given by its changes, count along the chain named.
# Columns and labels:
# RXFP1 D42A = molecular target: T1, RXFP1 D42A (Homo sapiens, UniProt Q9HBX9, D64A); assay: cAMP activity assay (pCRE β-galactosidase reporter), transfected HEK293T cells; format: cell-based; conditions: construct D42A
# T1 construct: transiently transfected human embryonic kidney (HEK) 293T cells expressing full-length RXFP1 and mutants; expressed in transfected cells; host or cells: HEK293T
# T1 sequence (Q9HBX9 23-757 D64A limits assumed): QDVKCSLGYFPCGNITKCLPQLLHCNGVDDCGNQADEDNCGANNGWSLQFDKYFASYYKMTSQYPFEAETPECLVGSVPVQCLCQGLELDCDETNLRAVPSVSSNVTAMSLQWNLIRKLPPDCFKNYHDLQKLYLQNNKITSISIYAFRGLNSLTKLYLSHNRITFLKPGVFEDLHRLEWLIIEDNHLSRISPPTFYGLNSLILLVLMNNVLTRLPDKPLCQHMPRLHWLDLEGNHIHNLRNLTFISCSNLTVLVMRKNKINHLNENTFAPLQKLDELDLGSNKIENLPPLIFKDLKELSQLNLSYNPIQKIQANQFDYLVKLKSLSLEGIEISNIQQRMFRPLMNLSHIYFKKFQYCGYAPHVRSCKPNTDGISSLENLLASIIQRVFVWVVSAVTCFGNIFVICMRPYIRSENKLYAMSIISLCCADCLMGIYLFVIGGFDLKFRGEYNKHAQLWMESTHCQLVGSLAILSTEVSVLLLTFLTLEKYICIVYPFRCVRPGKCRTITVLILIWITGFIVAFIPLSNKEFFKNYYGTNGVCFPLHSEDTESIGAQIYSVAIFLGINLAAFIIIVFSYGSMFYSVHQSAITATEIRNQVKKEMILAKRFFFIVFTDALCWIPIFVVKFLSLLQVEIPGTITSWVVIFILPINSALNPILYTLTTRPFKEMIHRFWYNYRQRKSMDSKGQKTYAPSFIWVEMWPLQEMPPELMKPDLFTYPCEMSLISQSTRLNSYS
# Method in brief: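 HEK293T cells transfected with mutant RXFP1 and pCRE β-galactosidase reporter, stimulated with H2 relaxin in minimal media/1% DMSO. β-Galactosidase read with chlorophenol red-β-D-galactopyranoside at 570 nm; responses pooled from ≥3 triplicate experiments as % of 5 μM forskolin maximum.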
# RXFP1 F54A = molecular target: T2, RXFP1 F54A (Homo sapiens, UniProt Q9HBX9, F76A); assay: Eu-H2 relaxin saturation binding assay, transfected HEK293T cells; conditions: F54A-RXFP1 versus wild-type RXFP1
# T2 construct: cells expressing full-length RXFP1 and mutants; expressed in transfected cells; host or cells: HEK293T
# T2 sequence (Q9HBX9 23-757 F76A limits assumed): T1 sequence (Q9HBX9 23-757 D64A limits assumed) with A42D, F54A
substance,measurement,setting,value
H2 relaxin: two-chain 6-kDa peptide hormone structurally related to insulin; recombinant human gene-2 H2 relaxin provided by Corthera,H2 relaxin pEC50,RXFP1 D42A,<6 (4)
same,loss in H2 relaxin binding,RXFP1 F54A,fourfold
